According to patent US20220340682A1 (Sanofi, published 2022):
Numbering of substitutions follows the chain as printed.

T1: cCEACAM8, M. fascicularis CEACAM8 ECD (35-332) (Macaca fascicularis)
T1 construct: With 24 amino acid extension containing a His-Tag; also called cynomolgus CEACAM8
T1 chain: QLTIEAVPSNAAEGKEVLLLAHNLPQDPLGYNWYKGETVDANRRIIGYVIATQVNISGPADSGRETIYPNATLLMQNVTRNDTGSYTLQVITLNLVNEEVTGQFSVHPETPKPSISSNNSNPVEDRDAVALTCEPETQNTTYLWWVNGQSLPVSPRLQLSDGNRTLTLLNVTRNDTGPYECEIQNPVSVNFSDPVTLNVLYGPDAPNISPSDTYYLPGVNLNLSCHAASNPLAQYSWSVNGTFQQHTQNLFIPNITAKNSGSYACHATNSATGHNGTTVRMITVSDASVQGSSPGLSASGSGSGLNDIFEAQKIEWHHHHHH

T2: cCEACAM1, M. fascicularis CEACAM1 ECD (35-428) (Macaca fascicularis)
T2 construct: With 24 amino acid extension containing a His-Tag; also called cynomolgus CEACAM1
T2 chain: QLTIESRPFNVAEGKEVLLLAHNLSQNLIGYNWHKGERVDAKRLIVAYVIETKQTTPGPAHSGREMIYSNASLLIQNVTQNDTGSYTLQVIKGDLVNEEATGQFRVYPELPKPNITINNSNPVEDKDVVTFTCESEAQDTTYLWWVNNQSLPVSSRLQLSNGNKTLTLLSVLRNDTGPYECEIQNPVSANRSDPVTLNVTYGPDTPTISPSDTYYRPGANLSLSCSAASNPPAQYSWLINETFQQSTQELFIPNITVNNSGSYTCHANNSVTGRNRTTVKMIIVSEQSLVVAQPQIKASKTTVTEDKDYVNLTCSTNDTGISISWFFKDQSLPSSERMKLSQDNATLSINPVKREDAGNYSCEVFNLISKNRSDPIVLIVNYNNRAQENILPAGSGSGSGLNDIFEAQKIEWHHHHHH

T3: cCEACAM6, M. fascicularis CEACAM6 ECD (35-327) (Macaca fascicularis)
T3 construct: With 24 amino acid extension containing a His-Tag; also called cynomolgus CEACAM6
T3 chain: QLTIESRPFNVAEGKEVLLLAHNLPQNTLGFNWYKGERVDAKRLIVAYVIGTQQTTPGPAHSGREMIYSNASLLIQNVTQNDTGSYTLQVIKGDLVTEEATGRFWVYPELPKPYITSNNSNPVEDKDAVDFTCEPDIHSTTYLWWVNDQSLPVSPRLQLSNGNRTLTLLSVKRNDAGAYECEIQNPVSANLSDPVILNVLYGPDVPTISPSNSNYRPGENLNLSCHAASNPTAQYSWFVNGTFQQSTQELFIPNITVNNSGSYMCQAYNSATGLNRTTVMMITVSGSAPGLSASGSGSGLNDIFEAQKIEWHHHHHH

T4: cCEACAM5 A3B3, M. fascicularis CEACAM5 A3-B3 domain (499-688) (Macaca fascicularis)
T4 construct: Followed by 24 amino acid extension containing a His-Tag; also called cynomolgus CEACAM5 A3-B3
T4 chain: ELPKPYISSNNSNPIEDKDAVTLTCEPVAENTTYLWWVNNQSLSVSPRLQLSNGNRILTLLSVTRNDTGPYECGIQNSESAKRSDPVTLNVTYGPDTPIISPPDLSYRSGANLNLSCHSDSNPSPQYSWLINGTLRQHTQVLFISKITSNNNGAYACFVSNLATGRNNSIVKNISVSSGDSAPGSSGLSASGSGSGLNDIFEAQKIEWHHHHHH

T5: human CEACAM5 expressed on the surface of tumor cells (human, UniProt P06731 35-685)
T5 construct: Endogenous CEACAM5 of human tumor cells; also called hCEACAM5 on MKN45 cells; CEACAM5 on CR-IGR-034P primary colon tumor cells
T5 sequence: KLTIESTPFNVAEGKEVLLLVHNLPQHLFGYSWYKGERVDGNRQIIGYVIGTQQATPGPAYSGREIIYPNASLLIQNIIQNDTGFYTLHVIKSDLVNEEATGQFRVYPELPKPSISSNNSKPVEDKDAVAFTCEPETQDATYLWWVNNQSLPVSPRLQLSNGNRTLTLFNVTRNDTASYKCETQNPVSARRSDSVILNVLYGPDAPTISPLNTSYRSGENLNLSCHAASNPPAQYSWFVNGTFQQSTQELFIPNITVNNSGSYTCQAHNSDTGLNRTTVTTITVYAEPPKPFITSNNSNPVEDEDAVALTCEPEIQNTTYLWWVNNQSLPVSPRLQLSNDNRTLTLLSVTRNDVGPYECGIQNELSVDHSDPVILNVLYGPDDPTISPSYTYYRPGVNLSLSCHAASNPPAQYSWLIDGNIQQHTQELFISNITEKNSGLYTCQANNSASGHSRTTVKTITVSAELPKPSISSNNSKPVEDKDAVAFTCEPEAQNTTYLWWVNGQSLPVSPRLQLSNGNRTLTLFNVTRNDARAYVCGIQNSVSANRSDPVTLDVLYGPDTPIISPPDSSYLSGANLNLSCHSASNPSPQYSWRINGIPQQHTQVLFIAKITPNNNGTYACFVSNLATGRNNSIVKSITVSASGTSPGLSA

B1: huMAb2-3 (antibody, human IgG1, kappa, V domains shown)
VH: EVQLQESGPGLVKPGGSLSLSCAASGFVFSSYDMSWVRQTPERGLEWVAYISSGGGITYAPSTVKGRFTVSRDNAKNTLYLQMNSLTSEDTAVYYCAAHYFGSSGPFAYWGQGTLVTVSS
VL: DIQMTQSPASLSASVGDRVTITCRASENIFSYLAWYQQKPGKSPKLLVYNTRTLAEGVPSRFSGSGSGTDFSLTISSLQPEDFATYYCQHHYGTPFTFGSGTKLEIKR
notes: Humanized MAb2, human IgG1 / Ckappa; also called MAb2_VL1cVH1a-IgG1
B2: huMAb2-1 (antibody, V domains shown)
VH: B1 VH with G44R, A60F, V93I, S120A
VL: DIQMTQSPASLSASVGDTVTITCRASENIFSYLAWYQQKPGKSPKLLVYNTKTLAEGVPSRFSGSGSGTQFSLTISSLQPEDFGSYYCQHHYGTPFTFGSGTKLEIK
notes: Humanized MAb2 (VL1 + VH1) fused to human IgG1 and human Ckappa constant domains; also called MAb2_VL1VH1-IgG1; MAb2VL1VH1-IgG1
B3: chMAb2 (antibody, human IgG1, kappa, V domains shown)
VH: EVQLQESGGVLVKPGGSLKLSCAASGFVFSSYDMSWVRQTPEKRLEWVAYISSGGGITYFPDTVQGRFTVSRDNAKNTLYLQMNSLKSEDTAIYYCAAHYFGSSGPFAYWGQGTLVTVSA
VL: B1 VL with D17E, R18T, P40Q, K45Q, R52K, D70Q, T74K, S76N, A84G, T85S
notes: Chimeric, human IgG1, Ck isotype; also called MAb2-IgG1; chimeric MAb2
B4: huMAb2-2 (antibody, V domains shown)
VH: B1 VH
VL: B2 VL with T18R, Q70D, G84A, S85T
notes: Humanized MAb2 (VL1a + VH1a) fused to human IgG1 and human Ckappa constant domains; also called MAb2_VL1aVH1a-IgG1; MA2_VL1aVH1a-IgG1
B5: huMAb2-4 (antibody, human IgG1, kappa, V domains shown)
VH: B1 VH with G44R, A60F, V93I, S120A
VL: B1 VL with R18T, D70Q, A84G, T85S
notes: Humanized MAb2, human IgG1 / Ckappa; also called MAb2_VL1d VH1-IgG1; MAb2_VL1dVH1-IgG1
B6: antibody MAb4 (antibody, IgG1, V domains shown)
VH: EVQLVESGGGLVKPGGSLKLSCAASGFTFSSYDMSWVRQTPEKRLEWVAFISSYGGRTYYADTVKGRFTISRDNAKNTLYLQMSSLKSEDTAMFYCAAHYFGTSGPFAYWGQGTLVTVSA
VL: DIQMTQSPASLSASVGETVTITCRASENIYSYFAWYQQKQGKSPQLLVYNAKILAEGVPSRFSGSGSGTQFSLKINSLQPEDFGTYYCQHHYGIPFTFGSGTKLELK
notes: Murine monoclonal from hybridoma, IgG1, kappa
B7: antibody MAb5 (antibody, IgG1, V domains shown)
VH: ELQLVESGGVLVKPGGSLKLSCAASGFAFSSYDMSWVRQTPEKRLEWVTYINSGGGITYYPDTVKGRFTISRDNARNTLYLQMSSLKSEDTAIYYCTAHYFGSSGPFAYWGQGTLVTVSA
VL: B6 VL with F33L, I53T, A55T, T85S, I94T, L106I
notes: as for B6
B8: antibody MAb1 (antibody, IgG1, V domains shown)
VH: EVMLVESGGGLVKPGGSLKLSCAASGFTFSSYAMSWVRQTPEKRLEWVATISSGGSYIYYLDSVKGRFTISRDNAKNTLYLQMSSLRSEDTAMYYCARPAYYGNPAMDYWGQGTSVTVSS
VL: DILMTQSQKFMSTSVGDRVSVTCKASQNVGTNVAWYQQKPGQSPKPLIYSASYRYSGVPDRFTGSGSGTDFTLTISNVQSEDLAEYFCQQYNSYPLYTFGGGTKLEIK
B9: antibody MAb3 (antibody, IgG1, V domains shown)
VH: EVKLVESGGGLVKPGGSLTLPCAASGFTFSRYAMSWVRQTPEKRLEWVASISSGGDTYYPDSVKGRFTVSRDNARNILFLQMSSLRSEDTGMYYCARVNYYDSSFLDWWGQGTTLTVSS
VL: B8 VL with L3V, K9R, S14L, V15E, P46A, S93N
notes: as for B6

Biological target: T1, cCEACAM8, M. fascicularis CEACAM8 ECD …
Experiment: ELISA
In the case of B1, the “percentage of binding compared to full binding with cynomolgus CEACAM5” value (“percentage of binding” below) is reported as 1.2%.
In the case of B2, the “percentage of binding” value is reported as 3.6%.
B3 was tested, and the “percentage of binding” value was 1.2%.
For B4, the “percentage of binding” value was 0.9%.
In the case of B5, the “percentage of binding” value is reported as 3.2%.

Biological target: T2, cCEACAM1, M. fascicularis CEACAM1 ECD …
Experiment: ELISA
B1 was tested, and the “percentage of binding” value was 0.3%.
With B2 the “percentage of binding” value was 0.3%.
In the case of B3, the “percentage of binding” value is reported as 0.2%.
B4 was tested, and the “percentage of binding” value was 0.3%.
B5 was tested, and the “percentage of binding” value was 0.3%.

Biological target: T3, cCEACAM6, M. fascicularis CEACAM6 ECD …
Experiment: ELISA
With B1 the “percentage of binding” value was 0.4%.
With B2 the “percentage of binding” value was 0.3%.
In the case of B3, the “percentage of binding” value is reported as 0.3%.
For B4, the “percentage of binding” value was 0.3%.
B5 was tested, and the “percentage of binding” value was 0.3%.

Biological target: T4, cCEACAM5 A3B3, M. fascicularis CEACAM5 …
Experiment: ELISA on coated recombinant CEACAM5 protein or domain, anti-mouse IgG-HRP, OD 450 nm
Procedure: Domain mapping of anti-CEACAM5 antibodies to human CEACAM5 and cynomolgus CEACAM5 proteins was determined by ELISA. […] Purified antibodies were added to the plates and detected by using rabbit anti-mouse IgG conjugated with horseradish peroxidase (Sigma; #A9044). Antibody binding was visualized by adding TMB-H2O2 buffer and read at a wavelength of 450 nm.
B6: binds.
B7: binds.
B8: binds.
B9: binds.

What follows are binders tested against T5, human CEACAM5 expressed on the surface … (assay: apparent KD, flow cytometry on CR-IGR-034P primary colon tumor cells).
Procedure: Advanced human primary colon tumor CR-IGR-034P (Julien et al., Clin Cancer Res Oct. 1, 2012 18:5314-5328) was obtained from Patient-derived xenograft in mice. Tumor CR-IGR-034P was enzymatically dissociated using collagenase Type IV (Invitrogen; #17104-019) and deoxyribonuclease I (Invitrogen; #18047-019) for 1 h at […], Cell viability was estimated by Viacount application using Guava® easyCyte™ 8HT Flow Cytometry System. […] 100 μL/well of goat anti-mouse IgG conjugated with Alexa647 (Invitrogen; # A2135) or goat anti-human IgG conjugated with Alexa488 (Invitrogen; # A11013) was added for 45 min at 4° C. and washed three times with PBS 1% BSA. The antibody binding was evaluated after centrifugation and resuspension of cells by adding 200 pliwell PBS 1% BSA and read using Guava® easyCyte™ 8HT Flow Cytometry System. Apparent KD and EC50 values were estimated using BIOST@T-BINDING and BIOST@T-SPEED softwares, respectively.
A Kd of 0.16 nM was found for B6 in this work.
A Kd of 0.5 nM was found for B7 in this work.
A Kd of 1.92 nM was found for B8 in this work.
A Kd of 1.01 nM was found for B9 in this work.
